B1: Histone-lysine N-methyltransferase SETD7 (Homo sapiens), Q8WTS6 (parent)
chain: MDSDDEMVEEAVEGHLDDDGLPHGFCTVTYSSTDRFEGNFVHGEKNGRGKFFFFDGSTLEGYYVDDALQGQGVYTYEDGGVLQGTYVDGELNGPAQEYDTDGRLIFKGQYKDNIRHGVCWIYYPDGGSLVGEVNEDGEMTGEKIAYVYPDERTALYGKFIDGEMIEGKLATLMSTEEGRPHFELMPGNSVYHFDKSTSSCISTNALLPDPYESERVYVAESLISSAGEGLFSKVAVGPNTVMSFYNGVRITHQEVDSRDWALNGNTLSLDEETVIDVPEPYNHVSKYCASLGHKANHSFTPNCIYDMFVHPRFGPIKCIRTLRAVEADEELTVAYGYDHSPPGKSGPEAPEWYQVELKAFQATQQK

Variants of: B1
Details: with h31_human H3C1, P68431

| effect of a mutation on the interaction | Variant |
| --- | --- |
| decreasing interaction | Y245A |
